Changes are numbered by the printed parent chain.

The target of experiment [1] is T1, urokinase plasminogen activator (uPA) (UniProt P00749 21-431, limits assumed). Description: cell-based or functional assay.
Experiment [2] deals with T2, human plasma kallikrein (PK) (human, UniProt P03952 20-638). Description: cell-based or functional assay.
Experiment [3] concerns the target T3, human kallikrein 14 (hK14) (human, UniProt Q9P0G3 25-251, limits assumed).
T3 sequence (looked up): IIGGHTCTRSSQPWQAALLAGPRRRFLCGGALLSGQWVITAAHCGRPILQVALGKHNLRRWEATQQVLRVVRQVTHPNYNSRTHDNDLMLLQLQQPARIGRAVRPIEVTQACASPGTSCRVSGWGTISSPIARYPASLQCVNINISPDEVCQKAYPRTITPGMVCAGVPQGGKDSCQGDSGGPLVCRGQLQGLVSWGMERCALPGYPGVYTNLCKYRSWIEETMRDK
Description: cell-based or functional assay.

The target in experiment [4] is T4, human chymotrypsin (Chtr) (human, UniProt P17538 19-263). Description: cell-based or functional assay.
The target in experiment [5] is T5, human neutrophil elastase (HNE) (human, UniProt P08246 30-247, limits assumed).
T5 sequence (looked up): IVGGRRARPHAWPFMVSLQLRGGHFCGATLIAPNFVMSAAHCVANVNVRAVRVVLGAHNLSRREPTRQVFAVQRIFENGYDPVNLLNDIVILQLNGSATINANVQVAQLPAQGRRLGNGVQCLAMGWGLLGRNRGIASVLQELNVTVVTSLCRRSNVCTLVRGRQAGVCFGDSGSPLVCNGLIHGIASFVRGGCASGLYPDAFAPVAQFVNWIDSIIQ
Description: cell-based or functional assay.

Experiment [6] deals with thrombin. Description: cell-based or functional assay.
Experiment [7] addresses T2, human plasma kallikrein (PK). Description: cell-based or functional assay. This is another data set of the same source.
The target of experiment [8] is T3, human kallikrein 14 (hK14). Description: cell-based or functional assay. The source holds these as a separate data set.
For another experiment, the target named is human kallikrein 6 (hK6) (human, UniProt Q92876 22-244). Description: cell-based or functional assay.
Experiment [9] concerns the target T4, human chymotrypsin (Chtr). Description: cell-based or functional assay. The source holds these as a separate data set.
Experiment [10] has as its target T5, human neutrophil elastase (HNE). Description: cell-based or functional assay. The source holds these as a separate data set.
Experiment [11] has as its target T6, human kallikrein 2 (hK2) (human, UniProt P20151 25-261). Description: cell-based or functional assay.
In experiment [12] the target is T7, prostate specific antigen (PSA, hK3) (human, UniProt P07288 25-261). Description: cell-based or functional assay.
Experiment [13] concerns the target T8, human kallikrein 13 (hK13) (human, UniProt Q9UKR3 26-277, limits assumed).
T8 sequence (looked up): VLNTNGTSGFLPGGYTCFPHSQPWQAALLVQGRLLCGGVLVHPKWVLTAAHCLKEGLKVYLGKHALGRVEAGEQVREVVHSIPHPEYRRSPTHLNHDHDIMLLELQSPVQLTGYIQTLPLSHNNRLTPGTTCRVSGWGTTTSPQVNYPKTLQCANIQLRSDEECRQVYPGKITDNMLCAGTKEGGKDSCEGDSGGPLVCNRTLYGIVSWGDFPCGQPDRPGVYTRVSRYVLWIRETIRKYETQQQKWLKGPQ
Description: cell-based or functional assay.

The target in another experiment is T9, human kallikrein 8 (hK8) (human, UniProt O60259 33-260).
T9 sequence (looked up): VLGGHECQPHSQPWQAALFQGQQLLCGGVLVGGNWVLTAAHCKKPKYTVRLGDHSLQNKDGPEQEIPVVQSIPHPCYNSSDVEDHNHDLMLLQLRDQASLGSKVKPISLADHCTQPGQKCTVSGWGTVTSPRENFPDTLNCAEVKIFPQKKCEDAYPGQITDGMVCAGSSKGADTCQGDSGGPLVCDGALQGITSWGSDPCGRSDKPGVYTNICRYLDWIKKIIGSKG
Description: cell-based or functional assay.

Experiment [14] has as its target thrombin. Description: cell-based or functional assay. The source holds these as a separate data set.
A further experiment addresses T10, human kallikrein 5 (hK5) (human, UniProt Q9Y337 67-293, limits assumed).
T10 sequence (looked up): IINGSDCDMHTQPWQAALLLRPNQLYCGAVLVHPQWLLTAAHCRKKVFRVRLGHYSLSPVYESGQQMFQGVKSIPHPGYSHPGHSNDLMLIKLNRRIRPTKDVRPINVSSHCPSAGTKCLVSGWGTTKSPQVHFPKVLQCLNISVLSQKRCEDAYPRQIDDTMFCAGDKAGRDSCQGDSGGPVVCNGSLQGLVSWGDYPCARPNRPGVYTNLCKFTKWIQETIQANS
Description: cell-based or functional assay.

The target in experiment [15] is T3, human kallikrein 14 (hK14). Description: residual hK14 activity after 4 h at 37 C against [I0]/[E0]. As for the experimental part: (§1) SI values of rAAT, rACT, and their variants were determined with hK14 incubating the protease with varying concentrations of inhibitor. After an incubation of 4 hours at 37° C. in reaction buffer (50 mM Tris, pH 7.5, 150 mM NaCl, 0.05% Triton X-100, 0.01% BSA), the residual activity was detected by the addition of fluorescent substrate (Boc-Val-Pro-Arg-AMC). Fluorescence was measured with excitation at 340 nm (±15) and emission at 485 nm (±10) in black 96 well plates using a microplate fluorescence reader FLₓ800 (Bio-Tek Instruments, Inc.). The SI value corresponds to the abscissa intercept of the linear regression analysis of fractional velocity (velocity of inhibited enzyme reaction (vi)/velocity of uninhibited enzyme reaction (v₀)) vs. the molar ratio of the inhibitor to enzyme ([I₀]/[E₀]).

Experiment [16] has as its target T3, human kallikrein 14 (hK14). Description: residual hK14 activity against [I0]/[E0]. As for the experimental part:
as §1

Experiment [17] concerns the target T1, urokinase plasminogen activator (uPA). Description: cell-based or functional assay. This is another data set of the same source.
For the next experiment, the target named is human kallikrein hK1 (human, UniProt P06870 25-262). Description: cell-based or functional assay.
Experiment [18] deals with T6, human kallikrein 2 (hK2). Description: cell-based or functional assay. This is another data set of the same source.
For experiment [19], the target named is T7, prostate specific antigen (PSA, hK3). Description: cell-based or functional assay. This is another data set of the same source.
In experiment [20] the target is T6, human kallikrein 2 (hK2). Description: progress curve, pseudo-first order, fluorogenic substrate. As for the experimental part: (§2) Under these conditions, a fixed amount of enzyme (2 nM) was mixed with different concentrations of inhibitor (0-800 nM) and an excess of substrate (10 μM). Each reaction was made in reaction buffer (50 mM Tris pH 7.5, 150 mM NaCl, 0,05% Triton X-100, 0.01% BSA) at 25° C. for 45 min and the rate of product formation was measured using a FLₓ800 fluorescence 96-well microplate reader (Biotek, USA). In this model, inhibition is considered to be irreversible over the course of reaction and the progress of enzyme activity is expressed by product formation (P), beginning at a rate (vz) and is inhibited over time (t) at a first-order rate (kobs), rate constant that is dependent only on inhibitor concentration.

In experiment [21] the target is T6, human kallikrein 2 (hK2). Description: residual enzyme activity against [I]o/[E]o, fluorogenic substrate. As for the experimental part: (§3) The stoichiometry of inhibition (SI) values were determined for the inhibition of rACTWT and its variants with hK2 and different other enzymes. An initial test was made with a molar excess of rACT (100 fold) over hK2, PSA, hK1, chymotrypsin (Chtr), plasma kallikrein (PK), urokinase (uPA) and human neutrophile elastase (HNE) enzymes. The reaction was carried out for 30 min at 25° C. (90 min at 37° C. for PSA) in reaction buffer (50 mM Tris pH 7.5, 150 mM NaCl, 0,05% Triton X-100, 0.01% BSA) and residual enzyme activity was measured by adding fluorescent substrates (Z-Phe-Arg-AMC for hK1, hK2 and PK, Suc-Ala-Ala-Pro-Phe-AMC for Chtr, Z-Gly-Gly-Arg-AMC for uPA, MeOSuc-Ala-Ala-Pro-Val-AMC for HNE, and CFP-TFRSA-YFP (TFRSA SEQ ID NO:137) for PSA). Activity of enzyme in presence of inhibitors was compared to uninhibited reaction. For reactions where an inhibition was observed, SI was determined by incubating different concentrations of recombinant serpins. Using linear regression analysis of fractional activity (velocity of inhibited enzyme reaction/velocity of uninhibited enzyme reaction) versus the molar ratio of the inhibitor to enzyme ([Iₒ]/[Eₒ]), the stoichiometry of inhibition, corresponding to the abscissa intercept, was obtained.

In experiment [22] the target is T2, human plasma kallikrein (PK). Description: cell-based or functional assay. This is another data set of the same source.
Experiment [23] has the same target. Description: progress curve, pseudo-first order, fluorogenic substrate. As for the experimental part:
as §2

Experiment [24] shares this target. Description: residual enzyme activity against [I]o/[E]o, fluorogenic substrate. The method, then: as §3

T2 sequence (P03952 20-638 limits assumed): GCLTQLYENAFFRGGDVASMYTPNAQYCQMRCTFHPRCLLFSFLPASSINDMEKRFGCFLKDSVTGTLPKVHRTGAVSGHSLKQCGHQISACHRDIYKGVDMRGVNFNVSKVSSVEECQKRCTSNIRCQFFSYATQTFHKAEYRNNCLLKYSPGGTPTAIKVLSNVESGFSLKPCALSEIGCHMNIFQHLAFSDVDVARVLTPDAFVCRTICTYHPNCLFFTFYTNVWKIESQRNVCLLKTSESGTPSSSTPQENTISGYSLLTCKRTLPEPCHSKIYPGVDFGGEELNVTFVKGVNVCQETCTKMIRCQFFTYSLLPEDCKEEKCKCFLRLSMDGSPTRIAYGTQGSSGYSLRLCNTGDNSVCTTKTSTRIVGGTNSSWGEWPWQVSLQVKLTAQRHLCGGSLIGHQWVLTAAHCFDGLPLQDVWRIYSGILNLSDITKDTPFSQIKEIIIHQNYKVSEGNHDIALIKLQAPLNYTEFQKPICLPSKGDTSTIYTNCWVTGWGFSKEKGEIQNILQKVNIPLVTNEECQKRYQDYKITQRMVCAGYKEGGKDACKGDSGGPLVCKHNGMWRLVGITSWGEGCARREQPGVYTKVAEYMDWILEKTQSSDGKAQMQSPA
T4 sequence (P17538 19-263): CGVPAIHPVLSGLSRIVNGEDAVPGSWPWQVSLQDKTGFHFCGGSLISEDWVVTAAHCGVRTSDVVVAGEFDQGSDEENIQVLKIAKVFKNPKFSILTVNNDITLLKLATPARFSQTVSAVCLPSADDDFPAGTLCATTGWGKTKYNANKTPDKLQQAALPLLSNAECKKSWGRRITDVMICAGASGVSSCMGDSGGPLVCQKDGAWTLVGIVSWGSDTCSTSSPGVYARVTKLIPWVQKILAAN

B1: AATE8 (other, human)
chain: HHHHHHEDPQGDAAQKTDTSHHDQDHPTFNKITPNLAEFAFSLYRQLAHQSNSTNIFFSPVSIATAFAMLSLGTKADTHDEILEGLNFNLTEIPEAQIHEGFQELLRTLNQPDSQLQLTTGNGLFLSEGLKLVDKFLEDVKKLYHSEAFTVNFGDTEEAKKQINDYVEKGTQGKIVDLVKELDRDTVFALVNYIFFKGKWERPFEVKDTEEEDFHVDQVTTVKVPMMKRLGMFNIQHCKKLSSWVLLMKYLGNATAIFFLPDEGKLQHLENELTHDIITKFLENEDRRSASLHLPKLSITGTYDLKSVLGQLGITKVFSNGADLSGVTEEAPLKLSKAVHKAVLTIDEKGTEAAGAMFLEALQRAIPPEVKFNKPFVFLMIEQNTKSPLFMGKVVNPTQK
notes: mature; also called rAATE8
Consider B1, for which the % Inhibition – broadly, how much of the control response was suppressed – was 0% in experiment [1]; 100% in experiment [2]; 100% in experiment [3]; 19% in experiment [4]; 0% in experiment [5]; 0% with thrombin [6]. Besides, the Percentage inhibition in experiment [7] amounted to 100%; in [8] it was 100%; with human kallikrein 6 (hK6), 100%; in [9], 19%; in experiment [10], 0%; in the experiment with human kallikrein 2 (hK2) [11], 19%. For the same molecule, the Percentage inhibition in experiment [12] was 0%; in experiment [13] it was 30%; with human kallikrein 8 (hK8), 36%; in the experiment with thrombin [14], 0%; with human kallikrein 5 (hK5), 100%. Moreover, the “SI (stoichiometry of inhibition)” value in [15] and in [16] was 7.4 each time.

B2: rACT5.18 (other)
chain: MRGSHHHHHHSRHPNSPLDEENLTQENQDRGTHVDLGLASANVDFAFSLYKQLVLKAPDKNVIFSPLSISTALAFLSLGAHNTTLTEILKGLKFNLTETSEAEIHQSFQHLLRTLNQSSDELQLSMGNAMFVKEQLSLLDRFTEDAKRLYGSEAFATDFQDSAAAKKLINDYVKNGTRGKITDLIKDLDSQTMMVLVNYIFFKAKWEMPFDPQDTHQSRFYLSKKKWVMVPMMSLHHLTIPYFRDEELSCTVVELKYTGNASALFILPDQDKMEEVEAMLLPETLKRWRDSLEFREIGELYLPKFSISRDYNLNDILLQLGIEEAFTSKADLSGITGARNLAVSQVVHKAVLDVFEEGTEASAATAVKITERVSPVETRTIVRFNRPFLMIIVPTDTQNIFFMSKVTNPKQA
notes: recombinant ACT variant, RSL substrate peptide ERVSP; N-terminal His tag, E. coli TG1; also called MD518
As for B2, the INHIBITION % in experiment [17] was determined as 0%; with human kallikrein hK1, 0%; with human kallikrein 2 (hK2) [18], 73%; in [19], 0%. Also, the kon (commonly the second-order rate constant of association) in the experiment with human kallikrein 2 (hK2) [20] was 595 M⁻¹ s⁻¹. Moreover, the “SI (stoichiometry of inhibition)” value in the experiment with human kallikrein 2 (hK2) [21] was determined as 139.

B3: rACT8.3 (other)
chain: B2 chain with T370R, E371G, V373S, S374E, P375L
notes: recombinant ACT variant, RSL substrate peptide RGRSE; N-terminal His tag, E. coli TG1; also called MD83; MD 83
Take B3: the INHIBITION % in [17] came to 0%; in the experiment with human kallikrein hK1, 0%; with human kallikrein 2 (hK2) [18], 100%; in experiment [19], 0%. The molecule further registered a kon in the experiment with human kallikrein 2 (hK2) [20] of 2440 M⁻¹ s⁻¹. In addition, the “SI (stoichiometry of inhibition)” value in the experiment with human kallikrein 2 (hK2) [21] stood at 34.

B4: rACT6.2 (other)
chain: B2 chain with E371R, V373S, S374I, P375D
notes: recombinant ACT variant, RSL substrate peptide RRSID; N-terminal His tag, E. coli TG1; also called MD62; MD 62
Regarding B4, the INHIBITION % in experiment [17] amounted to 0%; in experiment [22], 100%; with human kallikrein hK1, 0%; with human kallikrein 2 (hK2) [18] it was 100%. Further, the kon in experiment [23] was determined as 6220 M⁻¹ s⁻¹; with human kallikrein 2 (hK2) [20] it was 6260 M⁻¹ s⁻¹. In addition, the “SI (stoichiometry of inhibition)” value in experiment [24] came out at 18; with human kallikrein 2 (hK2) [21], 25.

The record behind these values is patent US20140341881A1 (DERMADIS, published 2014).
